Among the data in US20260217806A1 (H LUNDBECK A S, published 2026) are EC50 values, retold here.

The experiment addresses brain derived alpha synuclein oligomers and fibrils (MSA and PD brain homogenates enriched for aggregated, … (UniProt P37840 1-140)). Kind of experiment: ELISA on MSA and PD brain homogenates enriched for aggregated, insoluble alpha synuclein (data not shown).

B1: GM37 variant 2 (antibody, human IgG1, kappa, V domains shown)
VH: EVQLLESGGGLVQTGGSLRLSCAASGFTFSSYAMTWVRQAPGKGLEWVSAIRSQGDRTDYADSVKGRFTISRDNSQNTLYLQMNSLRAEDTAVYYCAKNWAPFDSWGQGTLVTVSS
VL: not shown
notes: VH 31 and VL 8 are firmly tied to the antibody; It is a human IgG1 kappa; also called GM37v2; GM37var2
As for B1, the EC50 – broadly, the concentration giving half of the maximal effect – is 90 to 160 pM.
